Measurements: US20210388087A1 (Chugai, published 2021)

target: T1, CD3 epsilon homodimer protein (UniProt P07766 23-126); assay: SPR, CD3 epsilon homodimer on chip, one-arm antibody as analyte;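 also: surface plasmon resonance at 25 °C with CD3 epsilon homodimer amine-coupled to a CM4 sensor chip, antibody injected as analyte, HBS-EP+ as running buffer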
T1 construct: also called CD3 (CD3 epsilon)
T1 sequence (P07766 23-126): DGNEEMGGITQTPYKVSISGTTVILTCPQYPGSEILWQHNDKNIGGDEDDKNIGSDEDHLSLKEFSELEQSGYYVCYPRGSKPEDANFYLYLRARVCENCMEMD
Method: An appropriate amount of CD3 epsilon homodimer protein was immobilized onto Sensor chip CM4 (GE Healthcare Japan Corp.) by the amine coupling method. Then, the antibody having an appropriate concentration was injected thereto as an analyte and allowed to interact with the CD3 epsilon homodimer protein on the sensor chip. Then, the sensor chip was regenerated by the injection of 10 mmol/L glycine-HCl (pH 1.5). The assay was conducted at 25 degrees C., and HBS-EP+(GE Healthcare Japan Corp.) was used as a running buffer. […] Each parameter was calculated using Biacore T200 Evaluation Software (GE Healthcare Japan Corp.).

KD ratio (KD of CE115HA000/KD of altered form) | Binder
1.24 | CE115HA000 N31F (antibody, human IgG1, kappa, L234A L235A, N297A, name in Kabat numbering, one-arm antibody) heavy: QVQLVESGGGVVQPGRSLRLSCAASGFTFSFAWMHWVRQAPGKGLEWVAQIKAKSNNYATYYAESVKGRFTISRDDSKNSLYLQMNSLKTEDTAVYYCRYVHYGAYYGVDAWGQGTTVTVSSASTKGPSVFPLAPSSKSTSGGTAALGCLVKDYFPEPVTVSWNSGALTSGVHTFPAVLQSSGLYSLSSVVTVPSSSLGTQTYICNVNHKPSNTKVDKKVEPKSCDKTHTCPPCPAPEAAGGPSVFLFPPKPKDTLMISRTPEVTCVVVDVSHEDPEVKFNWYVDGVEVHNAKTKPREEQYASTYRVVSVLTVLHQDWLNGKEYKCKVSNKALPAPIEKTISKAKGQPREPQVYTLPPSRCELTKNQVSLSCAVKGFYPSDIAVEWESNGQPENNYKTTPPVLDSDGSFFLVSKLTVDKSRWQQGNVFSCSVMHEALHNHYTQKSLSLSPDYKDDDDK EPKSSDKTHTCPPCPAPELLGGPSVFLFPPKPKDTLMISRTPEVTCVVVDVSHEDPEVKFNWYVDGVEVHNAKTKPREEQYNSTYRVVSVLTVLHQDWLNGKEYKCKVSNKALPAPIEKTISKAKGQPREPQVCTLPPSRDELTKNQVSLWCLVKGFYPSDIAVEWESNGQPENNYKTTPPVLDSDGSFFLYSKLTVDKSRWQQGNVFSCSVMHEALHNRYTQKSLSLSP light: DIVMTQSPLSLPVTPGEPASISCRSSQSLVHSNRNTYLHWYQQKPGQAPRLLIYKVSNRFSGVPDRFSGSGSGTDFTLKISRVEAEDVGVYYCGQGTQVPYTFGQGTKLEIKRTVAAPSVFIFPPSDEQLKSGTASVVCLLNNFYPREAKVQWKVDNALQSGNSQESVTEQDSKDSTYSLSSTLTLSKADYEKHKVYACEVTHQGLSSPVTKSFNRGEC
1.37 | CE115HA000 N31G (antibody, human IgG1, kappa, L234A L235A, N297A, name in Kabat numbering, one-arm antibody) heavy: QVQLVESGGGVVQPGRSLRLSCAASGFTFSGAWMHWVRQAPGKGLEWVAQIKAKSNNYATYYAESVKGRFTISRDDSKNSLYLQMNSLKTEDTAVYYCRYVHYGAYYGVDAWGQGTTVTVSSASTKGPSVFPLAPSSKSTSGGTAALGCLVKDYFPEPVTVSWNSGALTSGVHTFPAVLQSSGLYSLSSVVTVPSSSLGTQTYICNVNHKPSNTKVDKKVEPKSCDKTHTCPPCPAPEAAGGPSVFLFPPKPKDTLMISRTPEVTCVVVDVSHEDPEVKFNWYVDGVEVHNAKTKPREEQYASTYRVVSVLTVLHQDWLNGKEYKCKVSNKALPAPIEKTISKAKGQPREPQVYTLPPSRCELTKNQVSLSCAVKGFYPSDIAVEWESNGQPENNYKTTPPVLDSDGSFFLVSKLTVDKSRWQQGNVFSCSVMHEALHNHYTQKSLSLSPDYKDDDDK EPKSSDKTHTCPPCPAPELLGGPSVFLFPPKPKDTLMISRTPEVTCVVVDVSHEDPEVKFNWYVDGVEVHNAKTKPREEQYNSTYRVVSVLTVLHQDWLNGKEYKCKVSNKALPAPIEKTISKAKGQPREPQVCTLPPSRDELTKNQVSLWCLVKGFYPSDIAVEWESNGQPENNYKTTPPVLDSDGSFFLYSKLTVDKSRWQQGNVFSCSVMHEALHNRYTQKSLSLSP light: DIVMTQSPLSLPVTPGEPASISCRSSQSLVHSNRNTYLHWYQQKPGQAPRLLIYKVSNRFSGVPDRFSGSGSGTDFTLKISRVEAEDVGVYYCGQGTQVPYTFGQGTKLEIKRTVAAPSVFIFPPSDEQLKSGTASVVCLLNNFYPREAKVQWKVDNALQSGNSQESVTEQDSKDSTYSLSSTLTLSKADYEKHKVYACEVTHQGLSSPVTKSFNRGEC

The next lines start with the binder.

Binder | KD ratio (KD of CE115HA000/KD of altered form)
CE115HA000 N31A (antibody, human IgG1, kappa, L234A L235A, N297A, name in Kabat numbering, one-arm antibody) heavy: QVQLVESGGGVVQPGRSLRLSCAASGFTFSAAWMHWVRQAPGKGLEWVAQIKAKSNNYATYYAESVKGRFTISRDDSKNSLYLQMNSLKTEDTAVYYCRYVHYGAYYGVDAWGQGTTVTVSSASTKGPSVFPLAPSSKSTSGGTAALGCLVKDYFPEPVTVSWNSGALTSGVHTFPAVLQSSGLYSLSSVVTVPSSSLGTQTYICNVNHKPSNTKVDKKVEPKSCDKTHTCPPCPAPEAAGGPSVFLFPPKPKDTLMISRTPEVTCVVVDVSHEDPEVKFNWYVDGVEVHNAKTKPREEQYASTYRVVSVLTVLHQDWLNGKEYKCKVSNKALPAPIEKTISKAKGQPREPQVYTLPPSRCELTKNQVSLSCAVKGFYPSDIAVEWESNGQPENNYKTTPPVLDSDGSFFLVSKLTVDKSRWQQGNVFSCSVMHEALHNHYTQKSLSLSPDYKDDDDK EPKSSDKTHTCPPCPAPELLGGPSVFLFPPKPKDTLMISRTPEVTCVVVDVSHEDPEVKFNWYVDGVEVHNAKTKPREEQYNSTYRVVSVLTVLHQDWLNGKEYKCKVSNKALPAPIEKTISKAKGQPREPQVCTLPPSRDELTKNQVSLWCLVKGFYPSDIAVEWESNGQPENNYKTTPPVLDSDGSFFLYSKLTVDKSRWQQGNVFSCSVMHEALHNRYTQKSLSLSP light: DIVMTQSPLSLPVTPGEPASISCRSSQSLVHSNRNTYLHWYQQKPGQAPRLLIYKVSNRFSGVPDRFSGSGSGTDFTLKISRVEAEDVGVYYCGQGTQVPYTFGQGTKLEIKRTVAAPSVFIFPPSDEQLKSGTASVVCLLNNFYPREAKVQWKVDNALQSGNSQESVTEQDSKDSTYSLSSTLTLSKADYEKHKVYACEVTHQGLSSPVTKSFNRGEC | 0.96
CE115HA000 N31D (antibody, human IgG1, kappa, L234A L235A, N297A, name in Kabat numbering, one-arm antibody) heavy: QVQLVESGGGVVQPGRSLRLSCAASGFTFSDAWMHWVRQAPGKGLEWVAQIKAKSNNYATYYAESVKGRFTISRDDSKNSLYLQMNSLKTEDTAVYYCRYVHYGAYYGVDAWGQGTTVTVSSASTKGPSVFPLAPSSKSTSGGTAALGCLVKDYFPEPVTVSWNSGALTSGVHTFPAVLQSSGLYSLSSVVTVPSSSLGTQTYICNVNHKPSNTKVDKKVEPKSCDKTHTCPPCPAPEAAGGPSVFLFPPKPKDTLMISRTPEVTCVVVDVSHEDPEVKFNWYVDGVEVHNAKTKPREEQYASTYRVVSVLTVLHQDWLNGKEYKCKVSNKALPAPIEKTISKAKGQPREPQVYTLPPSRCELTKNQVSLSCAVKGFYPSDIAVEWESNGQPENNYKTTPPVLDSDGSFFLVSKLTVDKSRWQQGNVFSCSVMHEALHNHYTQKSLSLSPDYKDDDDK EPKSSDKTHTCPPCPAPELLGGPSVFLFPPKPKDTLMISRTPEVTCVVVDVSHEDPEVKFNWYVDGVEVHNAKTKPREEQYNSTYRVVSVLTVLHQDWLNGKEYKCKVSNKALPAPIEKTISKAKGQPREPQVCTLPPSRDELTKNQVSLWCLVKGFYPSDIAVEWESNGQPENNYKTTPPVLDSDGSFFLYSKLTVDKSRWQQGNVFSCSVMHEALHNRYTQKSLSLSP light: DIVMTQSPLSLPVTPGEPASISCRSSQSLVHSNRNTYLHWYQQKPGQAPRLLIYKVSNRFSGVPDRFSGSGSGTDFTLKISRVEAEDVGVYYCGQGTQVPYTFGQGTKLEIKRTVAAPSVFIFPPSDEQLKSGTASVVCLLNNFYPREAKVQWKVDNALQSGNSQESVTEQDSKDSTYSLSSTLTLSKADYEKHKVYACEVTHQGLSSPVTKSFNRGEC | 1.14
